Experimental data as given in patent US20140087995A1 (published 2014).
Values belong to the binder of their own block, whether it stands above or below them. Numbered stars: 1 amine (or outer) side, 2 acyl side, 3 side chain; on linkers, the order of the positions; unused ones are H or OH. Bridge positions count the residues as written; N and C are the ends. Side chains are listed from the residue outwards. Ends that are not written are not given here. * marks the point of attachment. C20 diacid = O=C(O)CCCCCCCCCCCCCCCCCCC(=O)*; γGlu = O=C(O)[C@H](CCC(=O)[*:2])N[*:1]; AEEA = NCCOCCOCC(=O)O

Biological target: T1, human calcitonin receptor (human, UniProt P30988 25-474)
T1 construct: whole, on cells; also called hCTR; hCT
T1 sequence (looked up): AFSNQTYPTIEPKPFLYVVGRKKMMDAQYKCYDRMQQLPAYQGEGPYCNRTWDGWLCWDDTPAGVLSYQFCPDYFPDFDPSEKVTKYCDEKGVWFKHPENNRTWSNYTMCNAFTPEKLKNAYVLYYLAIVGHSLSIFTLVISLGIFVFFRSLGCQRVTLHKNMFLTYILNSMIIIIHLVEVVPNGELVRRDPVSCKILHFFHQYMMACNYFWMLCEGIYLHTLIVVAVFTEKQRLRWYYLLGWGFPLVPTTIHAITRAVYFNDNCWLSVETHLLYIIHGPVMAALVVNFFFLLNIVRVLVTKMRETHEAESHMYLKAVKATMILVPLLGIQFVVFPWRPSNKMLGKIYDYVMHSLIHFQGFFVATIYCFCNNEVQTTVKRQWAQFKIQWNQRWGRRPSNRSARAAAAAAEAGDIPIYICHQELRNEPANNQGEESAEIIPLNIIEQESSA
Test: SPA competition with 125I-calcitonin, membranes of BHK hCTR cells (Assay VII)
Summary of the method: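 BHK hCTR membranes 35 ng/μL + SPA beads 0.05 mg/well; buffer 50 mM Hepes pH 7.4, 1 mM CaCl2, 5 mM MgCl₂, 0.1% OA, 0.02% Tween20. 120 min, 25° C., shaking. Scintillation count; IC50 by one-site binding competition.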

IC50: 1.53 nM
B1: N^ε1-[2-[2-[2-[[(4S)-4-carboxy-4-(19-carboxynonadecanoylamino)butanoyl]amino]ethoxy]ethoxy]acetyl]-[Gly14,Arg17,Pro21,Pro27,Pro31]-h-amylin (peptide)
peptide: K([AEEA-γGlu-C20 diacid])CNTATCATQRLAGFLRHSSPNFGAIPSSTPVGSNTY-NH2
modifications: disulfide 2-7; N-terminus assumed
SMILES: CC[C@H](C)[C@H](NC(=O)[C@H](C)NC(=O)CNC(=O)[C@H](Cc1ccccc1)NC(=O)[C@H](CC(N)=O)NC(=O)[C@@H]1CCCN1C(=O)[C@H](CO)NC(=O)[C@H](CO)NC(=O)[C@H](Cc1c[nH]cn1)NC(=O)[C@H](CCCNC(=N)N)NC(=O)[C@H](CC(C)C)NC(=O)[C@H](Cc1ccccc1)NC(=O)CNC(=O)[C@H](C)NC(=O)[C@H](CC(C)C)NC(=O)[C@H](CCCNC(=N)N)NC(=O)[C@H](CCC(N)=O)NC(=O)[C@@H](NC(=O)[C@H](C)NC(=O)[C@@H]1CSSC[C@H](NC(=O)[C@@H](N)CCCCNC(=O)COCCOCCNC(=O)CC[C@H](NC(=O)CCCCCCCCCCCCCCCCCCC(=O)O)C(=O)O)C(=O)N[C@@H](CC(N)=O)C(=O)N[C@@H]([C@@H](C)O)C(=O)N[C@@H](C)C(=O)N[C@@H]([C@@H](C)O)C(=O)N1)[C@@H](C)O)C(=O)N1CCC[C@H]1C(=O)N[C@@H](CO)C(=O)N[C@@H](CO)C(=O)N[C@H](C(=O)N1CCC[C@H]1C(=O)N[C@H](C(=O)NCC(=O)N[C@@H](CO)C(=O)N[C@@H](CC(N)=O)C(=O)N[C@H](C(=O)N[C@@H](Cc1ccc(O)cc1)C(N)=O)[C@@H](C)O)C(C)C)[C@@H](C)O
notes: also called compound 71

IC50: 5.66 nM
B2: N^ε1-[2-[2-[2-[[(4S)-4-carboxy-4-(19-carboxynonadecanoylamino)butanoyl]amino]ethoxy]ethoxy]acetyl]-[His14,Arg17,Pro21,Pro27,Pro34]-h-amylin (peptide)
peptide: K([AEEA-γGlu-C20 diacid])CNTATCATQRLAHFLRHSSPNFGAIPSSTNVGPNTY-NH2
modifications: disulfide 2-7; N-terminus assumed
SMILES: CC[C@H](C)[C@H](NC(=O)[C@H](C)NC(=O)CNC(=O)[C@H](Cc1ccccc1)NC(=O)[C@H](CC(N)=O)NC(=O)[C@@H]1CCCN1C(=O)[C@H](CO)NC(=O)[C@H](CO)NC(=O)[C@H](Cc1c[nH]cn1)NC(=O)[C@H](CCCNC(=N)N)NC(=O)[C@H](CC(C)C)NC(=O)[C@H](Cc1ccccc1)NC(=O)[C@H](Cc1c[nH]cn1)NC(=O)[C@H](C)NC(=O)[C@H](CC(C)C)NC(=O)[C@H](CCCNC(=N)N)NC(=O)[C@H](CCC(N)=O)NC(=O)[C@@H](NC(=O)[C@H](C)NC(=O)[C@@H]1CSSC[C@H](NC(=O)[C@@H](N)CCCCNC(=O)COCCOCCNC(=O)CC[C@H](NC(=O)CCCCCCCCCCCCCCCCCCC(=O)O)C(=O)O)C(=O)N[C@@H](CC(N)=O)C(=O)N[C@@H]([C@@H](C)O)C(=O)N[C@@H](C)C(=O)N[C@@H]([C@@H](C)O)C(=O)N1)[C@@H](C)O)C(=O)N1CCC[C@H]1C(=O)N[C@@H](CO)C(=O)N[C@@H](CO)C(=O)N[C@H](C(=O)N[C@@H](CC(N)=O)C(=O)N[C@H](C(=O)NCC(=O)N1CCC[C@H]1C(=O)N[C@@H](CC(N)=O)C(=O)N[C@H](C(=O)N[C@@H](Cc1ccc(O)cc1)C(N)=O)[C@@H](C)O)C(C)C)[C@@H](C)O
notes: also called compound 68

IC50: 8.68 nM
B3: N^ε1-[2-[2-[2-[[(4S)-4-carboxy-4-(19-carboxynonadecanoylamino)butanoyl]amino]ethoxy]ethoxy]acetyl]-[His14,Arg17,Pro21,Pro27]-h-amylin (peptide)
peptide: K([AEEA-γGlu-C20 diacid])CNTATCATQRLAHFLRHSSPNFGAIPSSTNVGSNTY-NH2
modifications: disulfide 2-7; N-terminus assumed
SMILES: CC[C@H](C)[C@H](NC(=O)[C@H](C)NC(=O)CNC(=O)[C@H](Cc1ccccc1)NC(=O)[C@H](CC(N)=O)NC(=O)[C@@H]1CCCN1C(=O)[C@H](CO)NC(=O)[C@H](CO)NC(=O)[C@H](Cc1c[nH]cn1)NC(=O)[C@H](CCCNC(=N)N)NC(=O)[C@H](CC(C)C)NC(=O)[C@H](Cc1ccccc1)NC(=O)[C@H](Cc1c[nH]cn1)NC(=O)[C@H](C)NC(=O)[C@H](CC(C)C)NC(=O)[C@H](CCCNC(=N)N)NC(=O)[C@H](CCC(N)=O)NC(=O)[C@@H](NC(=O)[C@H](C)NC(=O)[C@@H]1CSSC[C@H](NC(=O)[C@@H](N)CCCCNC(=O)COCCOCCNC(=O)CC[C@H](NC(=O)CCCCCCCCCCCCCCCCCCC(=O)O)C(=O)O)C(=O)N[C@@H](CC(N)=O)C(=O)N[C@@H]([C@@H](C)O)C(=O)N[C@@H](C)C(=O)N[C@@H]([C@@H](C)O)C(=O)N1)[C@@H](C)O)C(=O)N1CCC[C@H]1C(=O)N[C@@H](CO)C(=O)N[C@@H](CO)C(=O)N[C@H](C(=O)N[C@@H](CC(N)=O)C(=O)N[C@H](C(=O)NCC(=O)N[C@@H](CO)C(=O)N[C@@H](CC(N)=O)C(=O)N[C@H](C(=O)N[C@@H](Cc1ccc(O)cc1)C(N)=O)[C@@H](C)O)C(C)C)[C@@H](C)O
notes: also called compound 69

IC50: 79.9 nM
B4: N^ε1-[2-[2-[2-[[(4S)-4-carboxy-4-(19-carboxynonadecanoylamino)butanoyl]amino]ethoxy]ethoxy]acetyl]-[Lys14,Arg17,Pro21,Pro27,Pro31]-h-amylin (peptide)
peptide: K([AEEA-γGlu-C20 diacid])CNTATCATQRLAKFLRHSSPNFGAIPSSTPVGSNTY-NH2
modifications: disulfide 2-7; N-terminus assumed
SMILES: CC[C@H](C)[C@H](NC(=O)[C@H](C)NC(=O)CNC(=O)[C@H](Cc1ccccc1)NC(=O)[C@H](CC(N)=O)NC(=O)[C@@H]1CCCN1C(=O)[C@H](CO)NC(=O)[C@H](CO)NC(=O)[C@H](Cc1c[nH]cn1)NC(=O)[C@H](CCCNC(=N)N)NC(=O)[C@H](CC(C)C)NC(=O)[C@H](Cc1ccccc1)NC(=O)[C@H](CCCCN)NC(=O)[C@H](C)NC(=O)[C@H](CC(C)C)NC(=O)[C@H](CCCNC(=N)N)NC(=O)[C@H](CCC(N)=O)NC(=O)[C@@H](NC(=O)[C@H](C)NC(=O)[C@@H]1CSSC[C@H](NC(=O)[C@@H](N)CCCCNC(=O)COCCOCCNC(=O)CC[C@H](NC(=O)CCCCCCCCCCCCCCCCCCC(=O)O)C(=O)O)C(=O)N[C@@H](CC(N)=O)C(=O)N[C@@H]([C@@H](C)O)C(=O)N[C@@H](C)C(=O)N[C@@H]([C@@H](C)O)C(=O)N1)[C@@H](C)O)C(=O)N1CCC[C@H]1C(=O)N[C@@H](CO)C(=O)N[C@@H](CO)C(=O)N[C@H](C(=O)N1CCC[C@H]1C(=O)N[C@H](C(=O)NCC(=O)N[C@@H](CO)C(=O)N[C@@H](CC(N)=O)C(=O)N[C@H](C(=O)N[C@@H](Cc1ccc(O)cc1)C(N)=O)[C@@H](C)O)C(C)C)[C@@H](C)O
notes: also called compound 74

IC50: 5.38 nM
B5: N^ε1-[2-[2-[2-[[(4S)-4-carboxy-4-(19-carboxynonadecanoylamino)butanoyl]amino]ethoxy]ethoxy]acetyl]-[Ser14,Arg17,Pro21,Pro27,Pro31]-h-amylin (peptide)
peptide: K([AEEA-γGlu-C20 diacid])CNTATCATQRLASFLRHSSPNFGAIPSSTPVGSNTY-NH2
modifications: disulfide 2-7; N-terminus assumed
SMILES: CC[C@H](C)[C@H](NC(=O)[C@H](C)NC(=O)CNC(=O)[C@H](Cc1ccccc1)NC(=O)[C@H](CC(N)=O)NC(=O)[C@@H]1CCCN1C(=O)[C@H](CO)NC(=O)[C@H](CO)NC(=O)[C@H](Cc1c[nH]cn1)NC(=O)[C@H](CCCNC(=N)N)NC(=O)[C@H](CC(C)C)NC(=O)[C@H](Cc1ccccc1)NC(=O)[C@H](CO)NC(=O)[C@H](C)NC(=O)[C@H](CC(C)C)NC(=O)[C@H](CCCNC(=N)N)NC(=O)[C@H](CCC(N)=O)NC(=O)[C@@H](NC(=O)[C@H](C)NC(=O)[C@@H]1CSSC[C@H](NC(=O)[C@@H](N)CCCCNC(=O)COCCOCCNC(=O)CC[C@H](NC(=O)CCCCCCCCCCCCCCCCCCC(=O)O)C(=O)O)C(=O)N[C@@H](CC(N)=O)C(=O)N[C@@H]([C@@H](C)O)C(=O)N[C@@H](C)C(=O)N[C@@H]([C@@H](C)O)C(=O)N1)[C@@H](C)O)C(=O)N1CCC[C@H]1C(=O)N[C@@H](CO)C(=O)N[C@@H](CO)C(=O)N[C@H](C(=O)N1CCC[C@H]1C(=O)N[C@H](C(=O)NCC(=O)N[C@@H](CO)C(=O)N[C@@H](CC(N)=O)C(=O)N[C@H](C(=O)N[C@@H](Cc1ccc(O)cc1)C(N)=O)[C@@H](C)O)C(C)C)[C@@H](C)O
notes: also called compound 73

IC50: 8.11 nM
B6: N^ε1-[2-[2-[2-[[(4S)-4-carboxy-4-(19-carboxynonadecanoylamino)butanoyl]amino]ethoxy]ethoxy]acetyl]-[His14,Arg17,Pro21,Pro27,Pro31]-h-amylin (peptide)
peptide: K([AEEA-γGlu-C20 diacid])CNTATCATQRLAHFLRHSSPNFGAIPSSTPVGSNTY-NH2
modifications: disulfide 2-7; N-terminus assumed
SMILES: CC[C@H](C)[C@H](NC(=O)[C@H](C)NC(=O)CNC(=O)[C@H](Cc1ccccc1)NC(=O)[C@H](CC(N)=O)NC(=O)[C@@H]1CCCN1C(=O)[C@H](CO)NC(=O)[C@H](CO)NC(=O)[C@H](Cc1c[nH]cn1)NC(=O)[C@H](CCCNC(=N)N)NC(=O)[C@H](CC(C)C)NC(=O)[C@H](Cc1ccccc1)NC(=O)[C@H](Cc1c[nH]cn1)NC(=O)[C@H](C)NC(=O)[C@H](CC(C)C)NC(=O)[C@H](CCCNC(=N)N)NC(=O)[C@H](CCC(N)=O)NC(=O)[C@@H](NC(=O)[C@H](C)NC(=O)[C@@H]1CSSC[C@H](NC(=O)[C@@H](N)CCCCNC(=O)COCCOCCNC(=O)CC[C@H](NC(=O)CCCCCCCCCCCCCCCCCCC(=O)O)C(=O)O)C(=O)N[C@@H](CC(N)=O)C(=O)N[C@@H]([C@@H](C)O)C(=O)N[C@@H](C)C(=O)N[C@@H]([C@@H](C)O)C(=O)N1)[C@@H](C)O)C(=O)N1CCC[C@H]1C(=O)N[C@@H](CO)C(=O)N[C@@H](CO)C(=O)N[C@H](C(=O)N1CCC[C@H]1C(=O)N[C@H](C(=O)NCC(=O)N[C@@H](CO)C(=O)N[C@@H](CC(N)=O)C(=O)N[C@H](C(=O)N[C@@H](Cc1ccc(O)cc1)C(N)=O)[C@@H](C)O)C(C)C)[C@@H](C)O
notes: also called compound 61
